Assays:
Assay type in all cases: biochemical, Quillaja saponaria
[1] = Experiment 6-1: screening of rhamnosidases for derhamnosylation of saponins in treated bark extract (2%), QS-17 2296 to QS-18 2150 (PAR %); conditions: TBE 2%, pH 7.5, 30 degC, 18 h; TIC peak area ratio percent of rhamnosylated starting saponin to derhamnosylated product, LCMS/MS; negative controls 4.876, 5.225
[2] = Experiment 6-1: screening of rhamnosidases for derhamnosylation of saponins in treated bark extract (2%), desglucosyl-QS-17 2134 to QS-21 1988 (PAR %); conditions: TBE 2%, pH 7.5, 30 degC, 18 h; TIC peak area ratio percent, LCMS/MS; negative controls 2.719, 2.158
[3] = Experiment 6-1: screening of rhamnosidases for derhamnosylation of saponins in treated bark extract (2%), QS-17 2310 to QS-18 2164 (PAR %); conditions: TBE 2%, pH 7.5, 30 degC, 18 h; TIC peak area ratio percent, LCMS/MS; negative controls 3.061, 2.429
[4] = Experiment 6-1: specificity of rhamnosidases towards other rhamnose residues (C3 saccharide rhamnose, C28 saccharide rhamnose); conditions: TBE 2%, pH 7.5, 30 degC, 18 h; LCMS/MS; negative controls 0.18, 0.17

B1: 1050 (protein, listed as Streptomyces bottropensis)
chain: MNNAPYDLRIDTGGDQFAVSGPAPRLSWKPPSDTGHPAGYELECTVDGDAQPALRVAPGRHRFLPWPWAALGSGRQVEWRVRADGPGGPTPWSEWNAFEVGLLDEDWQARWISPAESGDPGYGKRPAHTLTARFEVRAGVRSARLYATALGLYEAYVNGERAGTAELSPGSTSYDRTLHAQASDVTAAVRAGGNLVEIVLSDGWYRGQVGAFRLPAGWGTVLGARAELHIAYEDGSRQVVRSDETWTSTRSAITRADLMDGQSTDFRAGRDTEQPVLVDRVEAAAIDWSPAPPVRVVASRPAQSVKQLRDGLWIADFGQNASGRLAVGDLGPAGTRTVIDYGEHVGPDGDLTTAHLDSSRPGEEPIPFVQRDEVVSMGRGETFEPRHTVHGFQYARIRRDGAPLDPASLTMRVVHTDLRRAGSFACSDDDLNRLHEIADWSFRGNAVDVPTDCPTRERLAWTGDYQVFAPTATRLYDVLGFSRKWLRSVRDDQLPDGRIANFSPDGRRIKHHLDDQFAMMTGSAGWGDAIVAVPWELYQSYGDQEILAENWEAMVRWVEWALRTARTARHHSRRERSAEPRPHERYLWDGSFHWGEWTEPRTKTADGTRIDPVKTDPVAWFMADKGEVGTAFLYRSTSTLADVARVLGRTEDAARYAETAEHVRDAWRTEFLTPDGRTTGDTQAGYVRALSLGLVPAELRPAAAARLVELIRSAGTHLGTGFLATGDLLPVLADTGHTDMAYELLLRRTAPSWLYMLDHGATTIWEDWEGIDENGDAHDSLNHYSKGAVIRFLHTHTLGLRQAPGSVAWESVEVAPVPHPSLTWARGTHESPQGTIAVEWRTTGDELTLAVDVPPATTARVVFPDGTTETATTGTFRATRRITCASSARSARAPGDEPLVRSEGATD
QS-17 (PAR %) [1]: 5.251%
Peak75 (PAR %) [2]: 2.528%
Peak57 (PAR %) [3]: 2.305%
ratio PP/QS-21 [4]: 0.17

B2: 1026 (protein, listed as Pseudarthrobacter chlorophenolicus)
chain: MTAPARLRAEHLREAMGLAVREPRLSWTPPAATAGQTAYRIMADNGWDTGRIASAESGGIAYGGPALDSRSRFDWRVRTWNVDSDGTETASDWSESMPVELGLLHPSDWTGQWISPGEEAVSPPGERPGYALTRTFTLPAAPDKARAYATAHGIYELFINGQRVGDQQLTPGSTSYNTTLQVQAYDVTALLTAGLNTIRAVLTDGWYRGTFGYTRDADMYGTHTAFLAQLELESEAGRQVIGTDPSWLVSATEVISADLMAGQRVDFRAYDTGSAPSAGKAPGVRAAVVRPGSFGALTGPLAPPTRVTEELAPVSITRLRNGHQVVDFGQNIHGWVRLAALGGPGETVTLEYGEALGRDGDVTRDHLRPHDFRVPGAFLDAGQVDTVTASGAPGEVFEPRHTSHGFQFVSVRGLATDLRPRDVTACLVRTDLERIGTFHCSDERLNKLHGIVEWSFLGNSCEVPTDCPQREKAGWTGDWQLFVPTAAYLYDVTGFTRKWLRDVRADQWDNGVIANISPSPGPAITSAEFMGFTNGSSGWGDAIVMVPWEAYLATGDASILAENWDAMNRWLGFVRTTAETRRHAARATQAPVPADHEKYLWDTGFHFGEWMEPDGPGPDLFASRTADNGIVATAYYRHTTDLMARIARALGLAAEAADLARLSDAIRDAWATEYLDESGRVTVASQANCVRALAFQLAGTEHRAAVTTQLVELIRDAGTHLGTGFLATPYLLPVLADHGHLGLAYELLMQDSEPSWLAMVDRGATTVWELWNGLDAGGAPHQSLNHYSKGAVVSFLHRYTAGLRQAPGSAGWNRIIIEPRPGAGLTSAATSHQGPHGPITVAWTLSTDALGPDEMTADGVLTLTADIPSGTTAEILLPGQPAAVVGPGHHVFSAATGGDTAHPELMRSTL
QS-17 (PAR %) [1]: 5.271%
Peak75 (PAR %) [2]: 2.501%
Peak57 (PAR %) [3]: 2.755%
ratio PP/QS-21 [4]: 0.17

Source: US20240026407A1, “MODIFICATION OF SAPONINS” (GLAXOSMITHKLINE BIOLOGICALS SA, priority 2020, published 2024)
